Data taken from paper PMC9242541, “Importance of Rare DPYD Genetic Polymorphisms for 5-Fluorouracil Therapy in the Japanese Population” (Frontiers in Pharmacology, 2022).

Target: the molecule itself
Assay: native gel or EMSA; blue native PAGE (Tris-glycine buffer, 5%-20% polyacrylamide gels), 9 μg of the soluble fraction of transfected 293FT cells per lane, immunoblot with polyclonal anti-human DPD antibody; monomer to dimer

| Protein | stoichiometry N |
| --- | --- |
| wild-type dihydropyrimidine dehydrogenase (DPD) (enzyme, human, UniProt Q12882 4-1025, looked up, dihydropyrimidine dehydrogenase (DPD), human, wild-type DPYD cDNA; the open-reading frame encodes 1,025 amino acid residues; no tag is stated; also called wild-type DPD; source: 293FT cells, transfected (pcDNA3.4), soluble fraction) VLSKDSADIESILALNPRTQTHATLCSTSAKKLDKKHWKRNPDKNCFNCEKLENNFDDIKHTTLGERGALREAMRCLKCADAPCQKSCPTNLDIKSFITSIANKNYYGAAKMIFSDNPLGLTCGMVCPTSDLCVGGCNLYATEEGPINIGGLQQFATEVFKAMSIPQIRNPSLPPPEKMSEAYSAKIALFGAGPASISCASFLARLGYSDITIFEKQEYVGGLSTSEIPQFRLPYDVVNFEIELMKDLGVKIICGKSLSVNEMTLSTLKEKGYKAAFIGIGLPEPNKDAIFQGLTQDQGFYTSKDFLPLVAKGSKAGMCACHSPLPSIRGVVIVLGAGDTAFDCATSALRCGARRVFIVFRKGFVNIRAVPEEMELAKEEKCEFLPFLSPRKVIVKGGRIVAMQFVRTEQDETGKWNEDEDQMVHLKADVVISAFGSVLSDPKVKEALSPIKFNRWGLPEVDPETMQTSEAWVFAGGDVVGLANTTVESVNDGKQASWYIHKYVQSQYGASVSAKPELPLFYTPIDLVDISVEMAGLKFINPFGLASATPATSTSMIRRAFEAGWGFALTKTFSLDKDIVTNVSPRIIRGTTSGPMYGPGQSSFLNIELISEKTAAYWCQSVTELKADFPDNIVIASIMCSYNKNDWTELAKKSEDSGADALELNLSCPHGMGERGMGLACGQDPELVRNICRWVRQAVQIPFFAKLTPNVTDIVSIARAAKEGGANGVTATNTVSGLMGLKSDGTPWPAVGIAKRTTYGGVSGTAIRPIALRAVTSIARALPGFPILATGGIDSAESGLQFLHSGASVLQVCSAIQNQDFTVIEDYCTGLKALLYLKSIEELQDWDGQSPATVSHQKGKPVPRIAELMDKKLPSFGPYLEQRKKIIAENKIRLKEQNVAFSPLKRNCFIPKRPIPTIKDVIGKALQYLGTFGELSNVEQVVAMIDEEMCINCGKCYMTCNDSGYQAIQFDPETHLPTITDTCTGCTLCLSVCPIVDCIKMVSRTTPYEPKRGVPLSVNPVC | 2 |
| DPD variant V313L (enzyme, human, UniProt Q12882 4-1025, looked up, dihydropyrimidine dehydrogenase (DPD), human, DPYD cDNA with a variant found in Japanese individuals; made by site-directed mutagenesis of the wild-type construct; also called 937G > T; source: 293FT cells, transfected (pcDNA3.4), soluble fraction) VLSKDSADIESILALNPRTQTHATLCSTSAKKLDKKHWKRNPDKNCFNCEKLENNFDDIKHTTLGERGALREAMRCLKCADAPCQKSCPTNLDIKSFITSIANKNYYGAAKMIFSDNPLGLTCGMVCPTSDLCVGGCNLYATEEGPINIGGLQQFATEVFKAMSIPQIRNPSLPPPEKMSEAYSAKIALFGAGPASISCASFLARLGYSDITIFEKQEYVGGLSTSEIPQFRLPYDVVNFEIELMKDLGVKIICGKSLSVNEMTLSTLKEKGYKAAFIGIGLPEPNKDAIFQGLTQDQGFYTSKDFLPLLAKGSKAGMCACHSPLPSIRGVVIVLGAGDTAFDCATSALRCGARRVFIVFRKGFVNIRAVPEEMELAKEEKCEFLPFLSPRKVIVKGGRIVAMQFVRTEQDETGKWNEDEDQMVHLKADVVISAFGSVLSDPKVKEALSPIKFNRWGLPEVDPETMQTSEAWVFAGGDVVGLANTTVESVNDGKQASWYIHKYVQSQYGASVSAKPELPLFYTPIDLVDISVEMAGLKFINPFGLASATPATSTSMIRRAFEAGWGFALTKTFSLDKDIVTNVSPRIIRGTTSGPMYGPGQSSFLNIELISEKTAAYWCQSVTELKADFPDNIVIASIMCSYNKNDWTELAKKSEDSGADALELNLSCPHGMGERGMGLACGQDPELVRNICRWVRQAVQIPFFAKLTPNVTDIVSIARAAKEGGANGVTATNTVSGLMGLKSDGTPWPAVGIAKRTTYGGVSGTAIRPIALRAVTSIARALPGFPILATGGIDSAESGLQFLHSGASVLQVCSAIQNQDFTVIEDYCTGLKALLYLKSIEELQDWDGQSPATVSHQKGKPVPRIAELMDKKLPSFGPYLEQRKKIIAENKIRLKEQNVAFSPLKRNCFIPKRPIPTIKDVIGKALQYLGTFGELSNVEQVVAMIDEEMCINCGKCYMTCNDSGYQAIQFDPETHLPTITDTCTGCTLCLSVCPIVDCIKMVSRTTPYEPKRGVPLSVNPVC | 2 |
| DPD variant I245F (enzyme, human, UniProt Q12882 4-1025, looked up, dihydropyrimidine dehydrogenase (DPD), human, DPYD cDNA with a variant found in Japanese individuals; made by site-directed mutagenesis of the wild-type construct; also called 733A > T; source: 293FT cells, transfected (pcDNA3.4), soluble fraction) VLSKDSADIESILALNPRTQTHATLCSTSAKKLDKKHWKRNPDKNCFNCEKLENNFDDIKHTTLGERGALREAMRCLKCADAPCQKSCPTNLDIKSFITSIANKNYYGAAKMIFSDNPLGLTCGMVCPTSDLCVGGCNLYATEEGPINIGGLQQFATEVFKAMSIPQIRNPSLPPPEKMSEAYSAKIALFGAGPASISCASFLARLGYSDITIFEKQEYVGGLSTSEIPQFRLPYDVVNFEFELMKDLGVKIICGKSLSVNEMTLSTLKEKGYKAAFIGIGLPEPNKDAIFQGLTQDQGFYTSKDFLPLVAKGSKAGMCACHSPLPSIRGVVIVLGAGDTAFDCATSALRCGARRVFIVFRKGFVNIRAVPEEMELAKEEKCEFLPFLSPRKVIVKGGRIVAMQFVRTEQDETGKWNEDEDQMVHLKADVVISAFGSVLSDPKVKEALSPIKFNRWGLPEVDPETMQTSEAWVFAGGDVVGLANTTVESVNDGKQASWYIHKYVQSQYGASVSAKPELPLFYTPIDLVDISVEMAGLKFINPFGLASATPATSTSMIRRAFEAGWGFALTKTFSLDKDIVTNVSPRIIRGTTSGPMYGPGQSSFLNIELISEKTAAYWCQSVTELKADFPDNIVIASIMCSYNKNDWTELAKKSEDSGADALELNLSCPHGMGERGMGLACGQDPELVRNICRWVRQAVQIPFFAKLTPNVTDIVSIARAAKEGGANGVTATNTVSGLMGLKSDGTPWPAVGIAKRTTYGGVSGTAIRPIALRAVTSIARALPGFPILATGGIDSAESGLQFLHSGASVLQVCSAIQNQDFTVIEDYCTGLKALLYLKSIEELQDWDGQSPATVSHQKGKPVPRIAELMDKKLPSFGPYLEQRKKIIAENKIRLKEQNVAFSPLKRNCFIPKRPIPTIKDVIGKALQYLGTFGELSNVEQVVAMIDEEMCINCGKCYMTCNDSGYQAIQFDPETHLPTITDTCTGCTLCLSVCPIVDCIKMVSRTTPYEPKRGVPLSVNPVC | 2 |
| DPD variant T298M (enzyme, human, UniProt Q12882 4-1025, looked up, dihydropyrimidine dehydrogenase (DPD), human, DPYD cDNA with a variant found in Japanese individuals; made by site-directed mutagenesis of the wild-type construct; also called 893C > T; source: 293FT cells, transfected (pcDNA3.4), soluble fraction) VLSKDSADIESILALNPRTQTHATLCSTSAKKLDKKHWKRNPDKNCFNCEKLENNFDDIKHTTLGERGALREAMRCLKCADAPCQKSCPTNLDIKSFITSIANKNYYGAAKMIFSDNPLGLTCGMVCPTSDLCVGGCNLYATEEGPINIGGLQQFATEVFKAMSIPQIRNPSLPPPEKMSEAYSAKIALFGAGPASISCASFLARLGYSDITIFEKQEYVGGLSTSEIPQFRLPYDVVNFEIELMKDLGVKIICGKSLSVNEMTLSTLKEKGYKAAFIGIGLPEPNKDAIFQGLMQDQGFYTSKDFLPLVAKGSKAGMCACHSPLPSIRGVVIVLGAGDTAFDCATSALRCGARRVFIVFRKGFVNIRAVPEEMELAKEEKCEFLPFLSPRKVIVKGGRIVAMQFVRTEQDETGKWNEDEDQMVHLKADVVISAFGSVLSDPKVKEALSPIKFNRWGLPEVDPETMQTSEAWVFAGGDVVGLANTTVESVNDGKQASWYIHKYVQSQYGASVSAKPELPLFYTPIDLVDISVEMAGLKFINPFGLASATPATSTSMIRRAFEAGWGFALTKTFSLDKDIVTNVSPRIIRGTTSGPMYGPGQSSFLNIELISEKTAAYWCQSVTELKADFPDNIVIASIMCSYNKNDWTELAKKSEDSGADALELNLSCPHGMGERGMGLACGQDPELVRNICRWVRQAVQIPFFAKLTPNVTDIVSIARAAKEGGANGVTATNTVSGLMGLKSDGTPWPAVGIAKRTTYGGVSGTAIRPIALRAVTSIARALPGFPILATGGIDSAESGLQFLHSGASVLQVCSAIQNQDFTVIEDYCTGLKALLYLKSIEELQDWDGQSPATVSHQKGKPVPRIAELMDKKLPSFGPYLEQRKKIIAENKIRLKEQNVAFSPLKRNCFIPKRPIPTIKDVIGKALQYLGTFGELSNVEQVVAMIDEEMCINCGKCYMTCNDSGYQAIQFDPETHLPTITDTCTGCTLCLSVCPIVDCIKMVSRTTPYEPKRGVPLSVNPVC | 2 |
| DPD variant Y304H (enzyme, human, UniProt Q12882 4-1025, looked up, dihydropyrimidine dehydrogenase (DPD), human, DPYD cDNA with a variant found in Japanese individuals; made by site-directed mutagenesis of the wild-type construct; also called 910T > C; source: 293FT cells, transfected (pcDNA3.4), soluble fraction) VLSKDSADIESILALNPRTQTHATLCSTSAKKLDKKHWKRNPDKNCFNCEKLENNFDDIKHTTLGERGALREAMRCLKCADAPCQKSCPTNLDIKSFITSIANKNYYGAAKMIFSDNPLGLTCGMVCPTSDLCVGGCNLYATEEGPINIGGLQQFATEVFKAMSIPQIRNPSLPPPEKMSEAYSAKIALFGAGPASISCASFLARLGYSDITIFEKQEYVGGLSTSEIPQFRLPYDVVNFEIELMKDLGVKIICGKSLSVNEMTLSTLKEKGYKAAFIGIGLPEPNKDAIFQGLTQDQGFHTSKDFLPLVAKGSKAGMCACHSPLPSIRGVVIVLGAGDTAFDCATSALRCGARRVFIVFRKGFVNIRAVPEEMELAKEEKCEFLPFLSPRKVIVKGGRIVAMQFVRTEQDETGKWNEDEDQMVHLKADVVISAFGSVLSDPKVKEALSPIKFNRWGLPEVDPETMQTSEAWVFAGGDVVGLANTTVESVNDGKQASWYIHKYVQSQYGASVSAKPELPLFYTPIDLVDISVEMAGLKFINPFGLASATPATSTSMIRRAFEAGWGFALTKTFSLDKDIVTNVSPRIIRGTTSGPMYGPGQSSFLNIELISEKTAAYWCQSVTELKADFPDNIVIASIMCSYNKNDWTELAKKSEDSGADALELNLSCPHGMGERGMGLACGQDPELVRNICRWVRQAVQIPFFAKLTPNVTDIVSIARAAKEGGANGVTATNTVSGLMGLKSDGTPWPAVGIAKRTTYGGVSGTAIRPIALRAVTSIARALPGFPILATGGIDSAESGLQFLHSGASVLQVCSAIQNQDFTVIEDYCTGLKALLYLKSIEELQDWDGQSPATVSHQKGKPVPRIAELMDKKLPSFGPYLEQRKKIIAENKIRLKEQNVAFSPLKRNCFIPKRPIPTIKDVIGKALQYLGTFGELSNVEQVVAMIDEEMCINCGKCYMTCNDSGYQAIQFDPETHLPTITDTCTGCTLCLSVCPIVDCIKMVSRTTPYEPKRGVPLSVNPVC | 2 |
| DPD variant D291N (enzyme, human, UniProt Q12882 4-1025, looked up, dihydropyrimidine dehydrogenase (DPD), human, DPYD cDNA with a variant found in Japanese individuals; made by site-directed mutagenesis of the wild-type construct; also called 871G > A; source: 293FT cells, transfected (pcDNA3.4), soluble fraction) VLSKDSADIESILALNPRTQTHATLCSTSAKKLDKKHWKRNPDKNCFNCEKLENNFDDIKHTTLGERGALREAMRCLKCADAPCQKSCPTNLDIKSFITSIANKNYYGAAKMIFSDNPLGLTCGMVCPTSDLCVGGCNLYATEEGPINIGGLQQFATEVFKAMSIPQIRNPSLPPPEKMSEAYSAKIALFGAGPASISCASFLARLGYSDITIFEKQEYVGGLSTSEIPQFRLPYDVVNFEIELMKDLGVKIICGKSLSVNEMTLSTLKEKGYKAAFIGIGLPEPNKNAIFQGLTQDQGFYTSKDFLPLVAKGSKAGMCACHSPLPSIRGVVIVLGAGDTAFDCATSALRCGARRVFIVFRKGFVNIRAVPEEMELAKEEKCEFLPFLSPRKVIVKGGRIVAMQFVRTEQDETGKWNEDEDQMVHLKADVVISAFGSVLSDPKVKEALSPIKFNRWGLPEVDPETMQTSEAWVFAGGDVVGLANTTVESVNDGKQASWYIHKYVQSQYGASVSAKPELPLFYTPIDLVDISVEMAGLKFINPFGLASATPATSTSMIRRAFEAGWGFALTKTFSLDKDIVTNVSPRIIRGTTSGPMYGPGQSSFLNIELISEKTAAYWCQSVTELKADFPDNIVIASIMCSYNKNDWTELAKKSEDSGADALELNLSCPHGMGERGMGLACGQDPELVRNICRWVRQAVQIPFFAKLTPNVTDIVSIARAAKEGGANGVTATNTVSGLMGLKSDGTPWPAVGIAKRTTYGGVSGTAIRPIALRAVTSIARALPGFPILATGGIDSAESGLQFLHSGASVLQVCSAIQNQDFTVIEDYCTGLKALLYLKSIEELQDWDGQSPATVSHQKGKPVPRIAELMDKKLPSFGPYLEQRKKIIAENKIRLKEQNVAFSPLKRNCFIPKRPIPTIKDVIGKALQYLGTFGELSNVEQVVAMIDEEMCINCGKCYMTCNDSGYQAIQFDPETHLPTITDTCTGCTLCLSVCPIVDCIKMVSRTTPYEPKRGVPLSVNPVC | 2 |
